Test results from patent US20120283173A1 (UNIVERSITATSKLINIKUM HAMBURG EPPENDORF, published 2012).

T1: Pseudomonas aeruginosa lectin PA-IL (Pseudomonas aeruginosa, UniProt Q05097 2-122)
T1 sequence (looked up): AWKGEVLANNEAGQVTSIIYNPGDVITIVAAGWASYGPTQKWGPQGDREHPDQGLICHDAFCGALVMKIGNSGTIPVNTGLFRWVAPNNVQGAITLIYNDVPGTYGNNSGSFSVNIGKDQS


Assays:
[1] = molecular target: T1, Pseudomonas aeruginosa lectin PA-IL; test: cell-based or functional assay
[2] = molecular target: Pseudomonas aeruginosa lectin PA-IIL (Pseudomonas aeruginosa); test: cell-based or functional assay

Binder	IC50 of inhibition of the PA-IL-induced decrease of ciliary beat frequency (CBF) [1]	IC50 of inhibition of the PA-IIL-induced decrease of ciliary beat frequency (CBF) [2]
FLHTRLFV [HNK-1 mimetic peptide pHNK-1]	484 µM	968 µM
TVFHFRLL [peptide sHNK-1 (scrambled version of pHNK-1)]	968 µM	
